Results from US20190167771, “CONTROL ANGIOGENESIS BY REGULATING PHOSPHORYLATION OF SERYL-tRNA SYNTHETASE (SerRS)” (The Scripps Research Institute, published 2019).

Target: SerRS (seryl-tRNA synthetase) wild type (Homo sapiens, UniProt P49591 SEQ:1-514)
Experiment: EMSA; 20 mM Tris pH 8.0, 60 mM KCl, 5 mM MgCl2, poly(dG-dC), room temperature
Settings: tags: C-terminal His6; label: 5'-32P
Experimental: The 27 bp DNA oligonucleotides corresponding to SerRS binding site on the VEGFA promoter (5′ GGCGGGGCGGAGCCATGCGCCCCCCCC 3′ (SEQ ID NO: 36)) were synthesized, annealed, and [³²P]-labeled at the 5′ end by T4 DNA kinase (New England Biolabs, Ipswich, Mass., USA) before desalting using a sephadex G-25 spin column (GE Healthcare, Pittsburgh, Pa., USA). The labeled oligonucleotides (0.08 pmol) were incubated with recombinant SerRS at indicated concentrations in binding buffer (20 mM Tris-HCl, pH 8.0, 60 mM KCl, 5 mM MgCl₂, 0.1 mg ml⁻¹ BSA, 10 ng μl⁻¹ poly (dG-dC), 1 mM DTT) for 30 min at room temperature. The samples were loaded to 5% native polyacrylamide gel (17.5 cm in length) and underwent electrophoresis at 250 V in running buffer (25 mM Tris, pH 8.3, 190 mM glycine). Afterwards, the gel was dried and examined by autoradiography.
The effect of hypoxia on the interaction of SerRS with VEGFA promoter was also explored. As detected by electrophoresis mobility shift assay (EMSA), the direct binding between SerRS and a ³²P-labeled 27-bp DNA fragment previously identified as the SerRS binding site from the VEGFA promoter in Shi et al. 2014 was attenuated by the phosphor-mimicking mutant SerRS^{S101D/S241D} (FIG. 2E).

SerRS (seryl-tRNA synthetase) wild type, sequence (P49591 whole entry): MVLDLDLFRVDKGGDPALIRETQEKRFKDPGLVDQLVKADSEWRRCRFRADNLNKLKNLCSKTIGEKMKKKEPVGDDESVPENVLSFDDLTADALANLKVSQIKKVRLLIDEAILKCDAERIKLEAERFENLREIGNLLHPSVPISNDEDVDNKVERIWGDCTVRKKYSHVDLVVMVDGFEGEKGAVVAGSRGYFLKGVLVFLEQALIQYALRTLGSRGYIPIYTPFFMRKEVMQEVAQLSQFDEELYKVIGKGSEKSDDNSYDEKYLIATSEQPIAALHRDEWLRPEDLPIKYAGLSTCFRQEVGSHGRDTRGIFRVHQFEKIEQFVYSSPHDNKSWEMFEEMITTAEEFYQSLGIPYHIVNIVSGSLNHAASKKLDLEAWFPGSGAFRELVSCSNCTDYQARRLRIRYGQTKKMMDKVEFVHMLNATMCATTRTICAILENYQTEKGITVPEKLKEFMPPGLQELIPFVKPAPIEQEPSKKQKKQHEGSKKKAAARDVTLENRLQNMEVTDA

B1: VEGFA promoter 27-bp SerRS site (dsDNA)
DNA 1: GGCGGGGCGGAGCCATGCGCCCCCCCC
DNA 2: GGGGGGGGCGCATGGCTCCGCCCCGCC
binding result: binds
